The subject of experiment [1] is SARS-CoV-2. Type of experiment: cell-based.
The test system of experiment [2] is SARS-CoV-2. Kind of experiment: microbe, parasite or virus in culture. Type of experiment: cell-based.
The subject of experiment [3] is SARS-CoV-2. In kind it is cell-based. This is another data set of the same source.
The subject of experiment [4] is SARS-CoV-2. In words: Hit validation across cell systems. Type of experiment: cell-based. The conditions noted are these: Huh7, LNCaP, Caco-2, Vero E6, iAEC2.
Experiment [5] relates to IFNβ and interferon-stimulated gene transcripts. Type of experiment: cell-based, human. The conditions noted are these: virus-infected Huh7, MOI 0.2, 48 h, 6250 nM.
Experiment [6] relates to SARS-CoV-2. Type of experiment: cell-based. This is another data set of the same source.

Broadly, the IC50 is the midpoint of a concentration-inhibition curve. Low values mean higher potency, high ones lower potency.

B1: Human Lactoferrin: native human lactoferrin (Creative BioMart; LFT-8196H) (protein, UniProt P02788 20-710, looked up)
Lactotransferrin: GRRRSVQWCAVSQPEATKCFQWQRNMRKVRGPPVSCIKRDSPIQCIQAIAENRADAVTLDGGFIYEAGLAPYKLRPVAAEVYGTERQPRTHYYAVAVVKKGGSFQLNELQGLKSCHTGLRRTAGWNVPIGTLRPFLNWTGPPEPIEAAVARFFSASCVPGADKGQFPNLCRLCAGTGENKCAFSSQEPYFSYSGAFKCLRDGAGDVAFIRESTVFEDLSDEAERDEYELLCPDNTRKPVDKFKDCHLARVPSHAVVARSVNGKEDAIWNLLRQAQEKFGKDKSPKFQLFGSPSGQKDLLFKDSAIGFSRVPPRIDSGLYLGSGYFTAIQNLRKSEEEVAARRARVVWCAVGEQELRKCNQWSGLSEGSVTCSSASTTEDCIALVLKGEADAMSLDGGYVYTAGKCGLVPVLAENYKSQQSSDPDPNCVDRPVEGYLAVAVVRRSDTSLTWNSVKGKKSCHTAVDRTAGWNIPMGLLFNQTGSCKFDEYFSQSCAPGSDPRSNLCALCIGDEQGENKCVPNSNERYYGYTGAFRCLAENAGDVAFVKDVTVLQNTDGNNNEAWAKDLKLADFALLCLDGKRKPVTEARSCHLAMAPNHAVVSRMDKVERLKQVLLHQQAKFGRNGSDCPDKFCLFQSETKNLLFNDNTECLARLHGKTTYEKYLGPQYVAGITNLKKCSTSPLLEACEFLRK
On to B1, for which, in experiment [1], the “antiviral activity at high MOI” value was “retained antiviral activity”.

B2: Lactoferrin (protein, UniProt P24627 20-708, looked up)
Lactotransferrin: APRKNVRWCTISQPEWFKCRRWQWRMKKLGAPSITCVRRAFALECIRAIAEKKADAVTLDGGMVFEAGRDPYKLRPVAAEIYGTKESPQTHYYAVAVVKKGSNFQLDQLQGRKSCHTGLGRSAGWIIPMGILRPYLSWTESLEPLQGAVAKFFSASCVPCIDRQAYPNLCQLCKGEGENQCACSSREPYFGYSGAFKCLQDGAGDVAFVKETTVFENLPEKADRDQYELLCLNNSRAPVDAFKECHLAQVPSHAVVARSVDGKEDLIWKLLSKAQEKFGKNKSRSFQLFGSPPGQRDLLFKDSALGFLRIPSKVDSALYLGSRYLTTLKNLRETAEEVKARYTRVVWCAVGPEEQKKCQQWSQQSGQNVTCATASTTDDCIVLVLKGEADALNLDGGYIYTAGKCGLVPVLAENRKSSKHSSLDCVLRPTEGYLAVAVVKKANEGLTWNSLKDKKSCHTAVDRTAGWNIPMGLIVNQTGSCAFDEFFSQSCAPGADPKSRLCALCAGDDQGLDKCVPNSKEKYYGYTGAFRCLAEDVGDVAFVKNDTVWENTNGESTADWAKNLNREDFRLLCLDGTRKPVTEAQSCHLAVAPNHAVVSRSDRAAHVKQVLLHQQALFGKNGKNCPDKFCLFKSETKNLLFNDNTECLAKLGGRPTYEEYLGTEYVTAIANLKKCSTSPLLEACAFLTR
modifications: iron-free apo form
Molecule B2 yielded a 50% inhibitory concentration (IC50) in experiment [2] of 0.44 µM. Also, in experiment [3], the “viral replication (viral RNA by RT-qPCR)” value was “dose-dependent inhibition of viral replication”. Further, the “antiviral activity at high MOI” value in experiment [1] was “retained antiviral activity”. For the same molecule, in experiment [1] (iAEC2), the “antiviral activity against SARS-CoV-2 in iAECs” value is “dose-responsive antiviral activity”. In addition, the “efficacy across all tested cell systems” value in experiment [4] is given as “maintained efficacy across all tested cell systems”. The “IFNβ and interferon-stimulated gene transcripts” value in experiment [5] is “up-regulation”. In addition, in experiment [6], the “antiviral activity through a range of MOIs” value is “retained antiviral activity” and the “antiviral activity when added after infection” value is recorded as “maintained antiviral activity”.

B3: hololactoferrin: iron-saturated hololactoferrin (Sigma-Aldrich; L4765) (protein, UniProt P24627 20-708, looked up)
Lactotransferrin: APRKNVRWCTISQPEWFKCRRWQWRMKKLGAPSITCVRRAFALECIRAIAEKKADAVTLDGGMVFEAGRDPYKLRPVAAEIYGTKESPQTHYYAVAVVKKGSNFQLDQLQGRKSCHTGLGRSAGWIIPMGILRPYLSWTESLEPLQGAVAKFFSASCVPCIDRQAYPNLCQLCKGEGENQCACSSREPYFGYSGAFKCLQDGAGDVAFVKETTVFENLPEKADRDQYELLCLNNSRAPVDAFKECHLAQVPSHAVVARSVDGKEDLIWKLLSKAQEKFGKNKSRSFQLFGSPPGQRDLLFKDSALGFLRIPSKVDSALYLGSRYLTTLKNLRETAEEVKARYTRVVWCAVGPEEQKKCQQWSQQSGQNVTCATASTTDDCIVLVLKGEADALNLDGGYIYTAGKCGLVPVLAENRKSSKHSSLDCVLRPTEGYLAVAVVKKANEGLTWNSLKDKKSCHTAVDRTAGWNIPMGLIVNQTGSCAFDEFFSQSCAPGADPKSRLCALCAGDDQGLDKCVPNSKEKYYGYTGAFRCLAEDVGDVAFVKNDTVWENTNGESTADWAKNLNREDFRLLCLDGTRKPVTEAQSCHLAVAPNHAVVSRSDRAAHVKQVLLHQQALFGKNGKNCPDKFCLFKSETKNLLFNDNTECLAKLGGRPTYEEYLGTEYVTAIANLKKCSTSPLLEACAFLTR
modifications: iron-saturated
On to B3, for which the “antiviral activity (iron chelation control)” value in experiment [6] (Huh7, 6,250 nM) was “retained activity”.
